We go through one substance from PMC3193175.

This assay has as its target split SUMO-modified PCNA (N-fragment and ^SUMOC-fragment self-assembled) (yeast) (UniProt P15873). Briefly: SEC. A general note: Size exclusion chromatography separates by hydrodynamic size, large species first.

One may read the stoichiometry N as a count of units in the complex or per binding partner. On to “split SUMO-modified PCNA (N-fragment and ^SUMOC-fragment self-assembled) (from UniProt P15873 1-163; P15873 165-258) (complex)”, for which the stoichiometry N is 3.
